How the values were obtained:
Assay in all cases: BLI
LbpB C-lobe ΔCaHD = target: LbpB C-lobe ΔCaHD
LbpB C-lobe = target: LbpB C-lobe
FL LbpB ΔCaHD = target: FL LbpB ΔCaHD

B1: bovine lactoferrin (Lf) (natural protein)
chain: APRKNVRWCTISQPEWFKCRRWQWRMKKLGAPSITCVRRAFALECIRAIAEKKADAVTLDGGMVFEAGRDPYKLRPVAAEIYGTKESPQTHYYAVAVVKKGSNFQLDQLQGRKSCHTGLGRSAGWIIPMGILRPYLSWTESLEPLQGAVAKFFSASCVPCIDRQAYPNLCQLCKGEGENQCACSSREPYFGYSGAFKCLQDGAGDVAFVKETTVFENLPEKADRDQYELLCLNNSRAPVDAFKECHLAQVPSHAVVARSVDGKEDLIWKLLSKAQEKFGKNKSRSFQLFGSPPGQRDLLFKDSALGFLRIPSKVDSALYLGSRYLTTLKNLRETAEEVKARYTRVVWCAVGPEEQKKCQQWSQQSGQNVTCATASTTDDCIVLVLKGEADALNLDGGYIYTAGKCGLVPVLAENRKSSKHSSLDCVLRPTEGYLAVAVVKKANEGLTWNSLKDKKSCHTAVDRTAGWNIPMGLIVNQTGSCAFDEFFSQSCAPGADPKSRLCALCAGDDQGLDKCVPNSKEKYYGYTGAFRCLAEDVGDVAFVKNDTVWENTNGESTADWAKNLNREDFRLLCLDGTRKPVTEAQSCHLAVAPNHAVVSRSDRAAHVKQVLLHQQALFGKNGKNCPDKFCLFKSETKNLLFNDNTECLAKLGGRPTYEEYLGTEYVTAIANLKKCSTSPLLEACAFLTR
In the case of B1, the Kd (LbpB C-lobe ΔCaHD) is reported as 2900 nM, the Kd (LbpB C-lobe) is reported as 200 nM and the Kd (FL LbpB ΔCaHD) is reported as 1280 nM.

Source: PMC11022072 (2024)
